From US20130288274A1 (BIO RAD LABORATORIES, published 2013)
Substitutions are numbered along the chain they refer to.

B1: classic D2 hexamer with His tag (His-tagged recombinant deamidated gliadin protein) (other)
chain: MRGSHHHHHHGSPEFQPEQPQQSFPEQERPFGGGGSQPEQPQQSFPEQERPFGGGGSQPEQPQQSFPEQERPFGGGGSQPEQPQQSFPEQERPFGGGGSQPEQPQQSFPEQERPFGGGGSQPEQPQQSFPEQERPF
notes: also called classic DGP; DGP hexamer
B2: lysine-containing D2 hexamer with His tag (His-tagged Recombinant Deamidated Gliadin Peptide with a lysine substituted for a glutamic acid residue at position … (other)
chain: B1 chain with E14K
notes: also called lysine-containing DGP; lysine-containing DGP hexamer

Target: the molecule itself
Test: SDS-PAGE and size-exclusion chromatography; self-association
Protocol: The affinity purified protein was analyzed by SDS-PAGE gel electrophoresis (FIG. 1). The D2-hexamers that were further purified on the size-exclusion column as described above were analyzed by SDS-PAGE (FIG. 1). […] This aggregation of the hexamers is so strong that it is not dissociated under the denaturing conditions used in SDS-PAGE. Additionally, both hexamer proteins migrated at the position of about 45 kd in a size-exclusion chromatogram. Without being bound to a particular theory, the surprising tendency of the hexamers to aggregate to form a trimer of hexamers may contribute to the improved immunoreactivity of the D2 hexamer.

Protein | binding result
B1 | binds
B2 | binds
